This is an account of results in patent publication US20030036166A1.

pKi: −log10 of the molar value.

In test [1] the target is T1, ErbB4.Fc (UniProt Q15303).
T1 sequence (looked up): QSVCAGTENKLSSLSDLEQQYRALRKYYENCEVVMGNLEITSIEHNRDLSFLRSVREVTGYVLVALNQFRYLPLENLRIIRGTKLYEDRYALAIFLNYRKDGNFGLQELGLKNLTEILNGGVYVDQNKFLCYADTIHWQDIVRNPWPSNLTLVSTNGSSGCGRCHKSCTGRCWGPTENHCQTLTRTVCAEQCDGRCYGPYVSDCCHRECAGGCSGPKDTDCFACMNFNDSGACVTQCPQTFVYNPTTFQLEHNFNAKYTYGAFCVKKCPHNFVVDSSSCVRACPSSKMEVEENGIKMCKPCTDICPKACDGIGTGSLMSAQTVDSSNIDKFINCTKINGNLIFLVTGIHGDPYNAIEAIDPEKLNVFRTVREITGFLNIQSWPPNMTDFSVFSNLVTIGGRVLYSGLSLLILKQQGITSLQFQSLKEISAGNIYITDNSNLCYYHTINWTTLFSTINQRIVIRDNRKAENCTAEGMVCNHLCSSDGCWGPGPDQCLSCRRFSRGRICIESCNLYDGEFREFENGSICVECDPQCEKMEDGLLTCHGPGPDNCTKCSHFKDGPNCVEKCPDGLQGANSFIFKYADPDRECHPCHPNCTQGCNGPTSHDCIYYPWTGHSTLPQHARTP
The experiment in a line: displacement of ^125I-NRG3^EGF.Fc (80 pM) from immobilized ErbB4.Fc by NRG1^EGF, 96-well plate, nonlinear regression.

The target of test [2] is T1, ErbB4.Fc. The test is described as follows: displacement of ^125I-NRG3^EGF.Fc (80 pM) from immobilized ErbB4.Fc by unlabeled NRG3^EGF.Fc, 96-well plate, nonlinear regression.

Chain of NRG3^EGF.Fc (O35181 284-344 limits assumed): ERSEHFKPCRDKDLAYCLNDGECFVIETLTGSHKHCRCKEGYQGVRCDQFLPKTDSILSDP

Regarding “NRG1^EGF (EGF-like domain of heregulin-β1, rHRGβ1 177-244) (from UniProt Q02297 177-244) (ligand)”, the pKi (as a rule, the negative decadic logarithm of the Ki, by convention in mol/L) with ErbB4.Fc [1] was 9.00.
On to “NRG3^EGF.Fc (from UniProt O35181 284-344) (Fc fusion)”, for which the pKi with ErbB4.Fc [2] was 8.05.
